Measurements as given in the supplement of paper PMC10567573.

B1: ZNF8 (parent)
chain: VHVIGVEEPSVGASMLFDIREST
B2: SLC35F2 (parent)
chain: SFMPLVIKVTSATSVNLGILTADL

Variants of: B1
Assay: protein stability index of a GFP-peptide fusion (GPS, HEK-293T) (PSI 1-6); higher = more stable
Conditions: c terminus: native
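Note: lentivirally expressed fusions sorted by FACS into six bins by GFP to DsRed ratio, PSI derived from sequencing read proportions per bin multiplied by bin number.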

Variant	protein stability index
I19S	3.29
I19F	1.64
I19E	3.34
I19L	2.04
I19N	3.23
I19M	2.33
H2P	3.59
H2W	2.25
H2V	1.83
H2K	2.29
H2F	1.97
H2E	3.35
H2A	2.67
S14E	2.28
S14R	1.9
S14Y	2.78
S14V	3.14
A13F	2.8
A13H	1.95
A13V	1.87
I4F	2.13
I4E	3.73
I4S	3.63

Variant	protein stability index
I4L	2.51
I4A	3.55
I4Q	3.47
E21L	2.64
E21H	1.95
E21Q	1.29
E21R	1.53
E21M	2.04
E21T	2.01
V11P	2.65
V11A	2.38
V11C	1.91
G5R	1.61
G5T	2.24
G5A	1.63
G5L	3.04
G5F	2.47
D18W	2.19
D18S	1.75
D18L	3
D18F	2.25
D18P	1.84
S10E	2.25

Variant	protein stability index
S10C	1.85
S10Q	2.28
F17Y	2.15
F17T	2.68
F17D	3.79
F17A	3.44
F17P	3.77
F17I	1.74
F17S	3.11
V1T	3.92
V1N	4.07
V1H	3.78
V1R	2.82
P9V	1.44
P9N	2.27
P9M	2.09
P9Q	2.17
P9C	1.87
P9Y	2.19
L16Q	2.87
L16H	2.71
L16P	2.48
L16F	1.58

Variant	protein stability index
E7T	1.61
E7A	1.69
E7M	2.14
E7H	1.15
E7D	1.86
E7Y	2.91
S22N	3.08
S22I	1.69
S22T	2.35
S22W	1.36
G12A	1.93
G12V	1.7
G12Y	2.95
G12F	2.1
G12K	1.9
G12C	1.78
G12M	1.71
M15S	2.78
M15H	2.4
M15Q	2.75
M15V	1.79
M15L	1.74
T23P	2.04

Variant	protein stability index
T23V	2.06
T23C	1.76
R20T	2.4
R20L	1.55
R20Y	1.81
R20S	2.63
R20D	2.96
E8A	2.25
E8N	1.48
V3P	3.49
V3W	1.47
V3Q	3.87
V3C	2.74
V3R	2.81
V3Y	1.54
V3M	2.84
V3A	3.18
V3N	3.89
V3I	1.84

Variants of: B2
Assay: as above
Conditions: c terminus: a fixed tail appended

Variant	protein stability index
L24I	3.14
L24N	3.27
L24S	2.87
L24R	1.89
L24C	3.76
L24F	3.22
L24P	3.07
L24M	3.01
L24T	2.24
L24H	3.57
L24G	3.04
L24V	2.43
L24Q	2.79
L24E	2.21
L24Y	4.32
L24W	1.78
L24A	3.11
L24K	2.4
L24D	1.55

Variant	protein stability index
A22G	3.15
A22I	4
A22D	2.67
A22T	3.93
A22R	2.35
A22C	4.09
A22Y	3.41
A22F	2.92
A22K	2.21
A22M	3.85
A22H	3.34
A22E	2.99
A22W	3.55
A22V	3.18
A22P	3.07
A22Q	2.86
A22N	2.95
A22S	2.88
A22L	2.58

Variant	protein stability index
D23L	3.79
D23S	2.11
D23F	2.91
D23K	1.8
D23A	2.74
D23N	3.05
D23I	3.05
D23G	3.96
D23P	2.65
D23M	1.83
D23E	4.12
D23W	2.49
D23Q	3.39
D23V	3.83
D23C	2.29
D23Y	3.03
D23T	3.29
D23H	3.1
